Data taken from the Human Domainome abundance scans (Beltran et al. 2025).

B1: Dystrobrevin alpha, residues 235 to 294; numbered along this chain, Q9Y4J8 (parent)
chain: ENVFHPVECSYCHSESMMGFRYRCQQCHNYQLCQDCFWRGHAGGSHSNQHQMKEYTSWKS
B2: Lysine-specific demethylase 2B, residues 656 to 722; numbered along this chain, Q8NHM5 (parent)
chain: LPHTAVCLVCGEAGKEDTVEEEEGKFNLMLMECSICNEIIHPGCLKIKESEGVVNDELPNCWECPKC

Variants of: B1
Assay: abundance fitness (aPCA) (normalised: wild type 0, dead -1); higher = more abundant; growth selection in yeast, the domain comes from the species named
Conditions: Homo sapiens

Abundance fitness of substitutions, site by site:
E1: T -0.166, M -0.377, K -0.248, A -0.257, G -0.336, D 0.028, Y 0.014, V -0.211, R -0.462, C 0.297, P -0.076, S -0.183
H5: C -0.024, K -0.028, P -0.102, M -0.114, A -0.195, Q -0.195, W -0.143, N 0.259, I 0.321, F -0.201, L -0.125, R -0.176, E 0.145, G -0.127
E8: V -0.329, D -0.206, Y -0.157, G 0.051, K -0.214, H -0.049, S -0.124, W -0.39, N -0.17, Q -0.155, M -0.35, F -0.13, T -0.234, R -0.222, L -0.233, I -0.104, P -0.001, A -0.365
C12: E -0.997, H -0.549, G -0.762, F -1.23, A -0.883, I -1.1, K -0.943, D -0.939
C9: A -1.12, Y -1.26, H -1.26, M -1.31, G -0.93, E -0.908, I -1.19, N -1.06, S -1.01, P -0.969, D -0.904, L -1.22, K -0.901, Q -1.05, W -1.23, F -1.25, V -1.1
F4: I 0.19, A -0.049, M -0.043, V -0.01, C 0.009, T 0.06, H -0.059, W -0.224, G -0.014, R -0.081, Y 0.084, D 0.108, N 0.037, L -0.039, P -0.107, S -0.14, Q -0.152
Y11: I -0.191, M -0.055, D -0.313, R -0.37, V -0.193, N -0.256, G -0.099, W -0.155, Q -0.223, S -0.219, P -0.658, C -0.247, A -0.208, T -0.201, F 0.039
P6: Y -0.218, L -0.176, V -0.089, M -0.071, F -0.091, W -0.127, A 0.07, G -0.063, Q -0.191, D 0.079, E -0.045, N 0.049, C -0.137, R -0.029, I -0.039
V7: D -0.012, K -0.086, F -0.428, A 0.063, P -0.009, I -0.023, T -0.048, H -0.055, W -0.072, M -0.08, Y -0.161, L -0.045, S 0, E 0.012, N 0.154, G -0.085, R -0.036, C 0.004
S10: P -0.421, T -0.162, I -0.588, C -0.018, G -0.443, F -0.351, Y -0.343, R -0.476, K -0.592, M -0.298, N -0.183, L -0.693, E -0.394, Q -0.453, V -0.746
N2: K -0.007, R -0.109, T 0.049, P -0.09, W -0.285, C -0.33, L -0.158, F -0.121, A 0.066, D -0.599, E 0.032, Y -0.035, M 0.092, V -0.129, Q 0.019, H -0.394
V3: I -0.006, G -0.217, F -0.248, L 0.096, Y 0.018, P 0.083, C 0.118, K 0.213, D 0.011, A -0.075, M 0.067, E 0.053, S 0.134, W -0.34, Q 0.106, N 0.149, R 0.011

Variants of: B2
Assay: as above
Conditions: Homo sapiens

Abundance fitness of substitutions, site by site:
E63: M -0.006, C -0.073, T 0.102, W -0.386, Y -0.263, V 0.039, L -0.074, K 0.146, Q -0.148, S -0.223, A 0.017, N -0.246, G -0.252, R -0.031, F -0.407, P -0.968
W62: F -0.014, Q -0.601, H -0.838, V -0.465, G -0.789, T -0.426, R -0.574, S -0.551, A -0.509, I -1, L -0.391, M -0.425, P -0.17, E -0.439, N -0.541, C -0.858, K -0.339, Y -0.296
P59: E 0.249, F -0.261, M -0.183, K 0.076, A -0.117, N 0.214, V 0.007, D -0.424, S -0.071, C -0.076, T -0.012, R 0.015, G -0.076, W -0.319, Q -0.024
L58: W -0.149, E 0.011, V -0.036, C 0.066, H 0.194, P -0.408, T 0.206, K 0.14, R 0.076, S 0.051, G -0.171, Q -0.107, A -0.454
K66: D -0.064, T -0.079, A -0.425, Q -0.551, P -0.049, W -0.846, C -0.819, E -0.058, V -0.173, S -0.284, G -0.263, L -0.705, R -0.145, M -0.434
C64: A -1.05, K -0.749, D -0.85, Y -0.804, I -0.778, Q -0.662, E -0.718, F -0.719, M -0.923, G -0.889, T -0.952, H 0.218, S -0.797, W -0.775, P -0.684, L -0.935, R -0.888, V -0.95
C61: W -0.171, A 0.053, H 0.309, K 0.005, M -0.12, I -0.349, G -0.192, D -0.475, P -0.054, N -0.675, T 0.248, F -0.325, L -0.04, Y 0.073, R 0.042, Q -0.08, S 0.018, E -0.105
P65: A -0.133, F -0.401, L -0.606, W -0.432, R -0.364, D -0.547, V -0.503, Q -0.454, E -0.148, T -0.634, I -0.899, C -0.384, S -0.177, H -0.289
C67: R -1.26, A -0.676, W -1.43, T -0.462, K -0.667, L -1.03, H -0.28, Y -1.08, G -0.992, P -0.867, E -0.596
N60: L -0.3, R -0.044, Q -0.155, H -0.127, S -0.166, C -0.368, K -0.176, T -0.091, E -0.211, M -0.234, P -0.128, W -0.176, I -0.186, F 0.153, G -0.062
